Data: patent publication US10513545B2, “Fusion polypeptide in which anti-inflammatory polypeptide and ferritin monomer fragment are bound and pharmaceutical composition for preventing and treating inflammatory diseases, containing same as active ingredient” (KYUNGPOOK NATIONAL UNIVERSITY INDUSTRY-ACADEMIC COOPERATION …, priority 2015, dated 2019)

Tests used:
[1] = target: T1, soluble EPCR (sEPCR) (Homo sapiens, UniProt Q9UNN8); test: solid-phase ELISA for binding affinity to soluble EPCR; conditions: FIG. 9, read-out: Kd(app) for the interaction with sEPCR
T1 construct: 96-well flat microtiter plates were coated with soluble EPCR
T1 sequence (Q9UNN8 18-210 limits assumed): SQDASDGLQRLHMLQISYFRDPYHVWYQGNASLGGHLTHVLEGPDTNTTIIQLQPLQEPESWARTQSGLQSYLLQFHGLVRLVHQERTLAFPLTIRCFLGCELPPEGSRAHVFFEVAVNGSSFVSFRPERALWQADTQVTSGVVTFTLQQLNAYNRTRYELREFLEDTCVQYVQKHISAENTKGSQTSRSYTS
Description: 9. Enzyme-Linked Immunosorbent Assays (ELISA) for Evaluating EPCR (Endothelial Protein C Receptor) Binding Affinity
To evaluate the interaction of the wild-type PC, PC-Gla peptides, TFG, and TFMG with EPCR, 96-well flat microtiter plates were coated with soluble EPCR in 20 mM carbonate-bicarbonate buffer (pH 9.6) containing 0.02% sodium azide, overnight at 4° C. After the plates were washed three times in TBS buffer (0.1 M NaCl, 0.02 M Tris-HCl, pH 7.4) containing 0.05% Tween 20, the plates were incubated with wild-type PC, PC-Gla peptides, TFG, and TFMG (7-1000 nM) diluted in the buffer for 1 h. After the plates were rinsed again, they were incubated with a goat anti-protein C polyclonal antibody (1:1000) for 1 h. Then, the plates were washed and incubated with rabbit anti-goat IgG (KPL, MD, 1:1000) for 1 h. After washing, the plates were incubated with 2,2′-azino-di(3-ethylbenzthiazoline-6-sulfonate) (ABTS; KPL, Gaithersburg, Md.). Colorimetric analysis was performed by measuring absorbance values at 405 nm.

[2] = target: T2, MMP-2 (Homo sapiens, UniProt P08253); test: cleavage of nanocaged TFMG by activated MMP-2; assay type: biochemical; conditions: p-aminophenylmercuric acetate-activated MMP-2, FIG. 6-8
T2 sequence (P08253 110-660): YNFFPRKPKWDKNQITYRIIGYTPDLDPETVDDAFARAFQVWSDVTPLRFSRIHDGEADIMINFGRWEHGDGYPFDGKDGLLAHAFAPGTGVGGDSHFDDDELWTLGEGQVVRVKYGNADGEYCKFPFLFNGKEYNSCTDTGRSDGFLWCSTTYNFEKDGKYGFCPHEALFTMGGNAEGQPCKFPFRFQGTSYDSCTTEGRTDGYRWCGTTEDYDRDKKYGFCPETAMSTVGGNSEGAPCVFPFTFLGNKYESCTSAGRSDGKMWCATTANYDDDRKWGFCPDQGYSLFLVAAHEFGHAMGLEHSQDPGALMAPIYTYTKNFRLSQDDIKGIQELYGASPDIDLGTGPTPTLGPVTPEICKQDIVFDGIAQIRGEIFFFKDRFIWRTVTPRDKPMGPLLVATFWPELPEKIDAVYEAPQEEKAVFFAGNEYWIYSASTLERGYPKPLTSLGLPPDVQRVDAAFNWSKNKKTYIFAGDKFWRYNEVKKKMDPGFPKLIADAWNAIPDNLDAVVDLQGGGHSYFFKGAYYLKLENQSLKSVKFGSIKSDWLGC
Description: To evaluate whether TFMG could be selectively cleaved by MMP2, TFMG was incubated with APMA-mediated activated MMP-2 in PBS at 37° C. for 3 h. The cleaved fragments of TFMG were detected by MALDI-ToF.

B1: TFMG: as TFG with an MMP-2 cleavable linker (GPLGLAG) between ferritin fragment C-terminus and PC-Gla (apparently SEQ ID NO: 15) (protein)
chain: MGGTTFLLRNASGHMSSQIRQNYSTDVEAAVNSLVNLYLQASYTYLSLGFYFDRDDVALEGVSHFFRELAEEKREGYERLLKMQNQRGGRIFLQDIKKPAEDEWGKTPDAMKAAMALEKKLNQALLDLHALGSARTDPHLCDFLETHFLDEEVKLIKKMGDHLTNLHRLGGGSEFVDGGGSGTSGPLGLAGANSFLEELRHSSLERECIEEICDFEEAKEIFQNVDDTLAFWSKHVLEHHHHHH
modifications: Fusion polypeptide (2)
B1 was tested, and the Kd [1] was 307 nM and the “release of PC-Gla by linker cleavage with MMP-2” value [2] was “continuously released PC-Gla”.
